The target in assay [1] is T1, 天然人白介素-33 (natural human interleukin-33 from HFL-1 cell lysate) (human, UniProt O95760 1-270, limits assumed).
T1 sequence (looked up): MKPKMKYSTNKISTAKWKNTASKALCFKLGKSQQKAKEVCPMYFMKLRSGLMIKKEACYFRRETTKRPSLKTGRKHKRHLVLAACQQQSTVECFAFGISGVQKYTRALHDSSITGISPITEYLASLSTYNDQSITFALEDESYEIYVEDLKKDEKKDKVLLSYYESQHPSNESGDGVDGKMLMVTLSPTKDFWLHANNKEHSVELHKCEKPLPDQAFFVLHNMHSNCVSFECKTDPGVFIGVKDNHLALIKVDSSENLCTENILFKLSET
The assay is described as follows: cell-based or functional assay.

For assay [2], the target named is T2, 人白介素-33 (human interleukin-33, recombinant) (human, UniProt O95760 112-270).
T2 sequence: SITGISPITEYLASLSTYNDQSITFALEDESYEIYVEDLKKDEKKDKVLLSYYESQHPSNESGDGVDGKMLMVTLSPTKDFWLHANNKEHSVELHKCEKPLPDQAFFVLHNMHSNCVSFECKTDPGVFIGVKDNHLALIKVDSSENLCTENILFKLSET
The assay is described as follows: cell-based or functional assay.

Experimental findings from patent publication CN114014929A (JIANGSU QYUNS THERAPEUTICS CO LTD, dated 2022) are described below.

B1: QX007N(HZD78-70) (antibody, V domains shown)
VH: EVQLVESGGGLVQPGGSLRLSCAASGFSLSSYHMIWVRQAPGKGLEWVGVIYPNSNIYYATWAKGRFTISRDNSKNTLYLQMNSLRAEDTAVYYCARTIYVHVYSALSIWGQGTLVTVSS
VL: AFQMTQSPSSVSASVGDRVTITCQASESVLNEVSWYQQKPGKAPKLLIYFASKLASGVPSRFSGSGSGTDFTLTISSLQPEDFATYYCQQDWSMDNIDNAFGGGTKVEIKR
For the molecule B1, the “中和天然人白介素-33诱导HEK Blue IL-33细胞中NF-κB/AP-1信号转导 (SEAP, OD630nm), IC50” value in assay [1] stood at 3.91 ng/mL. Moreover, in assay [2], the “中和人白介素-33诱导人全血释放IFN-γ, IC50” value was 16 ng/mL; the “中和人白介素-33诱导的KU812细胞释放IL-5 (IL-5 ELISA), IC50” value amounted to 5.87 ng/mL; the “中和重组人白介素-33诱导HEK Blue IL-33细胞中NF-κB/AP-1信号转导 (SEAP, OD630nm), IC50” value worked out at 6.67 ng/mL.
